Data reported in US20140072613A1, “Compositions and Methods for Treating Cutaneous Scarring” (priority 2012, published 2014).

Assays:
Assay in all cases: biochemical
Assay type in all cases: biochemical
266 human kinases [1] = target: 266 human kinases (Homo sapiens, UniProt P36888); conditions: Flt3(h); 100 μM
Method in brief: (§1)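 Radiometric filter-binding format: a positively charged substrate takes up radiolabelled phosphate from ATP unless the kinase is inhibited, then is captured on a negatively charged filter membrane. Counts from scintillation are expressed relative to a 100% activity control.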

266 human kinases [2] = target: T1, 266 human kinases (Homo sapiens, UniProt P41743); conditions: PKCι(h); 100 μM
T1 sequence (P41743 1-596): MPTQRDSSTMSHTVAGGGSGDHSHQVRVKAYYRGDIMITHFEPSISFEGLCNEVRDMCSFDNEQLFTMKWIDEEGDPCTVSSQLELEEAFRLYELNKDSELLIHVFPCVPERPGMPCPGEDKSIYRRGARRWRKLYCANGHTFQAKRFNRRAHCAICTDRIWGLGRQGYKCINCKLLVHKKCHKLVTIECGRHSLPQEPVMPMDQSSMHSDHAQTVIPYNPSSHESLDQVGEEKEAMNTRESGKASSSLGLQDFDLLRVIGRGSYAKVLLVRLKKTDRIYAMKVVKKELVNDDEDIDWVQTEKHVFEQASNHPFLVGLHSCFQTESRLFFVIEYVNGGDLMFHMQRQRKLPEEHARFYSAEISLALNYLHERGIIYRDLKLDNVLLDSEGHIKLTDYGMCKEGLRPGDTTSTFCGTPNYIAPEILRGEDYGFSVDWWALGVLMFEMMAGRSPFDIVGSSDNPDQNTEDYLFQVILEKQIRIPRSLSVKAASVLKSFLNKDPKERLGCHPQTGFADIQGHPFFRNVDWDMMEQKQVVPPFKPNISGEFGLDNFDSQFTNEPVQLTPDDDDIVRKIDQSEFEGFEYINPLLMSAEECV
Method in brief: as §1

266 human kinases [3] = target: 266 human kinases (Homo sapiens, UniProt O75676); conditions: MSK2(h); 100 μM
Method in brief: as §1

266 human kinases [4] = target: 266 human kinases (Homo sapiens, UniProt P05771); conditions: PKCβI(h); 100 μM
Method in brief: as §1

266 human kinases [5] = target: 266 human kinases (Homo sapiens, UniProt P22455); conditions: FGFR4(h); 100 μM
Method in brief: as §1

266 human kinases [6] = target: 266 human kinases (Homo sapiens, UniProt Q96GD4); conditions: Aurora-B(h); 100 μM
Method in brief: as §1

266 human kinases [7] = target: 266 human kinases (Homo sapiens, UniProt P50613); conditions: CDK7/cyclinH/MAT1(h); 100 μM
Method in brief: as §1

266 human kinases [8] = target: 266 human kinases (Homo sapiens, UniProt Q06187); conditions: BTK(h); 100 μM
Method in brief: as §1

266 human kinases [9] = target: 266 human kinases (Homo sapiens, UniProt P10721); conditions: cKit(h); 100 μM
Method in brief: as §1

266 human kinases [10] = target: T2, 266 human kinases (Homo sapiens, UniProt Q05513); conditions: PKCζ(h); 100 μM
T2 sequence (Q05513 1-592): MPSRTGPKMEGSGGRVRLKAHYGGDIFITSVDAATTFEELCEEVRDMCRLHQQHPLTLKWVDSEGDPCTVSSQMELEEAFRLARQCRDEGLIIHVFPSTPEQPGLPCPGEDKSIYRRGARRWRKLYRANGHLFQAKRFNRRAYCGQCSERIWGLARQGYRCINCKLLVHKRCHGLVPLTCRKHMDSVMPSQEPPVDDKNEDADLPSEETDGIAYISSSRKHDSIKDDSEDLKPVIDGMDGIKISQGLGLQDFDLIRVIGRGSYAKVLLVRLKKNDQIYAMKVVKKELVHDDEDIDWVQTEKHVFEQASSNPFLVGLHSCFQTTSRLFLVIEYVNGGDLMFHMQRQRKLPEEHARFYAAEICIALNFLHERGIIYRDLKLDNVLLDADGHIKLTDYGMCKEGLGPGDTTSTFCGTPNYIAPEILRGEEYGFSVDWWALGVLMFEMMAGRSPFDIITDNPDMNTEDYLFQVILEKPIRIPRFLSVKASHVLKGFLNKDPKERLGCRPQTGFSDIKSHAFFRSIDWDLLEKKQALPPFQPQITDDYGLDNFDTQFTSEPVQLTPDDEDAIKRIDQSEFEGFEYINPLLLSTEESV
Method in brief: as §1

266 human kinases [11] = target: 266 human kinases (Homo sapiens, UniProt P14616); conditions: IRR(h); 100 μM
Method in brief: as §1

266 human kinases [12] = target: T3, 266 human kinases (Homo sapiens, UniProt Q02156); conditions: PKCε(h); 100 μM
T3 sequence (Q02156 1-737): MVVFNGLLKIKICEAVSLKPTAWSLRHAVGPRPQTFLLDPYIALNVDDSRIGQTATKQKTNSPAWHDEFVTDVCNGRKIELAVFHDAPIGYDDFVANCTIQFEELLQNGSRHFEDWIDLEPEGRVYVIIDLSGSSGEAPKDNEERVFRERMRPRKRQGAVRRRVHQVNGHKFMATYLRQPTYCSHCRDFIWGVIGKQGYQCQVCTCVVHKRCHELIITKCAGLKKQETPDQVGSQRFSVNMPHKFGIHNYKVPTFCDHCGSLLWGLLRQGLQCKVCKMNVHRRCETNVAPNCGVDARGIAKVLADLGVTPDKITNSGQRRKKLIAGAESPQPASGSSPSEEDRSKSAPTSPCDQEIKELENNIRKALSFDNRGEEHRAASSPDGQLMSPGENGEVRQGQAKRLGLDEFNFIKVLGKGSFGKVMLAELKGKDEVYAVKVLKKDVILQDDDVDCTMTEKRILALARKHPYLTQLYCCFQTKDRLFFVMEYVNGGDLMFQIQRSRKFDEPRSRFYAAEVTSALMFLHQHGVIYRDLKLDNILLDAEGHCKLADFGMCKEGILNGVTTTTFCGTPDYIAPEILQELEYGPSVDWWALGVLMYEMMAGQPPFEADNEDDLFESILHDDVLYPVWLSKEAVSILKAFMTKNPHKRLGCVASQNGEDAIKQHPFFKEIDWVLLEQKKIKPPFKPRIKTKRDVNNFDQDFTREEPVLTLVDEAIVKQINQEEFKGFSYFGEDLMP
Method in brief: as §1

266 human kinases (Homo sapiens, UniProt Q06187), sequence (Q06187 whole entry): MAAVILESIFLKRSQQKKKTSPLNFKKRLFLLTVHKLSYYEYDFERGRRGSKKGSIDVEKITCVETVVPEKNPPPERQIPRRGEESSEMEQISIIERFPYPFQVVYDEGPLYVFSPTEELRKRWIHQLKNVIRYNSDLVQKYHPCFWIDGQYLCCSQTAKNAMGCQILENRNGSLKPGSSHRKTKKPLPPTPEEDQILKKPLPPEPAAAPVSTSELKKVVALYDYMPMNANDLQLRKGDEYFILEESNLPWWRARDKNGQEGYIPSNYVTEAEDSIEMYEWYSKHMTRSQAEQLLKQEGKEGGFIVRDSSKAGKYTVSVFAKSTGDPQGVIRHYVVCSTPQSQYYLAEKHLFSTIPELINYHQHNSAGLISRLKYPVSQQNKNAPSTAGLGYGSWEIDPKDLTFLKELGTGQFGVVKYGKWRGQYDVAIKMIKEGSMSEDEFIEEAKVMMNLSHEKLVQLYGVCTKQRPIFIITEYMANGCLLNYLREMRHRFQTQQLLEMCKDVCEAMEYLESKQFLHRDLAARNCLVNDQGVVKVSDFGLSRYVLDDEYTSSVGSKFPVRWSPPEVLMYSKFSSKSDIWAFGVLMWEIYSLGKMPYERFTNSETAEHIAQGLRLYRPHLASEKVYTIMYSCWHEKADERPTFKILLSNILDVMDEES
266 human kinases (Homo sapiens, UniProt P14616), sequence (P14616 27-1297): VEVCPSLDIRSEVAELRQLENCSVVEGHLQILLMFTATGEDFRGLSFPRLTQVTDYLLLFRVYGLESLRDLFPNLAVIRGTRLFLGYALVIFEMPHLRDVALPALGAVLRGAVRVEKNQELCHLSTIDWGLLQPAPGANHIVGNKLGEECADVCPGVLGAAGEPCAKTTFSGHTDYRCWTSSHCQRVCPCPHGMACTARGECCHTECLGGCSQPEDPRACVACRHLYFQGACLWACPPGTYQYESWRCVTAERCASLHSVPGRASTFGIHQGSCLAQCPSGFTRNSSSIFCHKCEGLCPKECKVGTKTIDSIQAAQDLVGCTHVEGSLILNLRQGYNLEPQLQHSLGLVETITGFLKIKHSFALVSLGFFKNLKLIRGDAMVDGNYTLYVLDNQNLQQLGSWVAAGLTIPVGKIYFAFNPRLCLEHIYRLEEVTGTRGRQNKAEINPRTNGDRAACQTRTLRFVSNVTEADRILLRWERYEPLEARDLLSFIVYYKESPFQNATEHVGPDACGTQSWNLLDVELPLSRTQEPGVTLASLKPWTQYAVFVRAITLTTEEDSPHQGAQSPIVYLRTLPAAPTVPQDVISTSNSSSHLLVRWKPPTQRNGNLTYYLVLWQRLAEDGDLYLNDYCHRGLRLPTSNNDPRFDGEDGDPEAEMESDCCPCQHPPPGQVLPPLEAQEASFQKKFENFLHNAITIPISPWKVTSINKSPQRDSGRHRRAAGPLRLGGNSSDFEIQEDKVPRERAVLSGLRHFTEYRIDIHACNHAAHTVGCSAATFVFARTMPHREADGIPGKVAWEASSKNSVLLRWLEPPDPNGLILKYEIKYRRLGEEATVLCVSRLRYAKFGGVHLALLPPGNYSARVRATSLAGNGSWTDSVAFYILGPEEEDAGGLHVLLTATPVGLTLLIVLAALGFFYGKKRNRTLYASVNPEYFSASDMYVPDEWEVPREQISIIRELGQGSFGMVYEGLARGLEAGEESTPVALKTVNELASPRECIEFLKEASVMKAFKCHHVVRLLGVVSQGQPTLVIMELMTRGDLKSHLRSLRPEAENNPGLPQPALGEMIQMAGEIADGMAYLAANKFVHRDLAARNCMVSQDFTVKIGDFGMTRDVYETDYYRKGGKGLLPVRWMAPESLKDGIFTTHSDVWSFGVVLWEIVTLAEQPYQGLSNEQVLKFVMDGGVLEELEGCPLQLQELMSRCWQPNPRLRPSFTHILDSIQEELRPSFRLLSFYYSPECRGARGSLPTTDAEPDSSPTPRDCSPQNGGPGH
266 human kinases (Homo sapiens, UniProt P50613), sequence (P50613 whole entry): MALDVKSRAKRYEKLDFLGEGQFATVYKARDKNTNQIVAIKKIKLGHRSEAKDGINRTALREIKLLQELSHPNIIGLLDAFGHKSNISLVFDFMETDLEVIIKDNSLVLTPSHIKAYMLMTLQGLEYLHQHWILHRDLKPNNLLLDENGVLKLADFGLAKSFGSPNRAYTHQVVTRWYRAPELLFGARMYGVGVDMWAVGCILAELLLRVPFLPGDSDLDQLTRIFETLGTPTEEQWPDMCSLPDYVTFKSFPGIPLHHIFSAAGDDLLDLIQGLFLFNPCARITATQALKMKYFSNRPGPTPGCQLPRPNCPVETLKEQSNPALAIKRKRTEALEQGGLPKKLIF
266 human kinases (Homo sapiens, UniProt O75676), sequence (O75676 whole entry): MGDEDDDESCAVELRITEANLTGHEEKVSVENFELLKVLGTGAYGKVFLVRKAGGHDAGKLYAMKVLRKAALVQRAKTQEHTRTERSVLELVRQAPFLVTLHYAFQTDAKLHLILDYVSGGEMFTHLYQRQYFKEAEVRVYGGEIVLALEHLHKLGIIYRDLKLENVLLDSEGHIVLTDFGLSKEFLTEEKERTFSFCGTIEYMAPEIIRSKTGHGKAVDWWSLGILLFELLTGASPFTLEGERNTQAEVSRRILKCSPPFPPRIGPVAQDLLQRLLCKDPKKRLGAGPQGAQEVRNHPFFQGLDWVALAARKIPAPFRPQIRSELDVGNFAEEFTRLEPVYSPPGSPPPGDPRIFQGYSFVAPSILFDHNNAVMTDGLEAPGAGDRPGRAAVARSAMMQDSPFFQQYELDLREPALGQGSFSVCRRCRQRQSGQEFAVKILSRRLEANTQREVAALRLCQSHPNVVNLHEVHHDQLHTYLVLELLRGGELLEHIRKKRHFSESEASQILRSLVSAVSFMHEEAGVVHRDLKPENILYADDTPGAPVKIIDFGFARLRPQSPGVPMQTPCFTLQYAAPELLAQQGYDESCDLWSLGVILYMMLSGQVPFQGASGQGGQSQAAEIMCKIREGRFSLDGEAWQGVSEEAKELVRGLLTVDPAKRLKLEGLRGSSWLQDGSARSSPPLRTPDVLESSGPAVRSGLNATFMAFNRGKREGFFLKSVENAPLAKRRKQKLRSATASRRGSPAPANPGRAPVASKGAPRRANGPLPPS
266 human kinases (Homo sapiens, UniProt Q96GD4), sequence (Q96GD4 whole entry): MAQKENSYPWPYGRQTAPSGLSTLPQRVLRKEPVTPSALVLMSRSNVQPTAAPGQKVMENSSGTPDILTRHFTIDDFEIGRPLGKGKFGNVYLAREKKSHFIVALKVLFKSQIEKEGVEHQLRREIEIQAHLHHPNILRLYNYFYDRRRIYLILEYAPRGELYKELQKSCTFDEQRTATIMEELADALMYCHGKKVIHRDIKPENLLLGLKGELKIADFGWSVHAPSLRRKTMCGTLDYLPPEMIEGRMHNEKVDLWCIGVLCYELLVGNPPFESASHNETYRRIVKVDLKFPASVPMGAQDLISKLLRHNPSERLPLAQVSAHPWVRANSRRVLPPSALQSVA
266 human kinases (Homo sapiens, UniProt P05771), sequence (P05771 whole entry): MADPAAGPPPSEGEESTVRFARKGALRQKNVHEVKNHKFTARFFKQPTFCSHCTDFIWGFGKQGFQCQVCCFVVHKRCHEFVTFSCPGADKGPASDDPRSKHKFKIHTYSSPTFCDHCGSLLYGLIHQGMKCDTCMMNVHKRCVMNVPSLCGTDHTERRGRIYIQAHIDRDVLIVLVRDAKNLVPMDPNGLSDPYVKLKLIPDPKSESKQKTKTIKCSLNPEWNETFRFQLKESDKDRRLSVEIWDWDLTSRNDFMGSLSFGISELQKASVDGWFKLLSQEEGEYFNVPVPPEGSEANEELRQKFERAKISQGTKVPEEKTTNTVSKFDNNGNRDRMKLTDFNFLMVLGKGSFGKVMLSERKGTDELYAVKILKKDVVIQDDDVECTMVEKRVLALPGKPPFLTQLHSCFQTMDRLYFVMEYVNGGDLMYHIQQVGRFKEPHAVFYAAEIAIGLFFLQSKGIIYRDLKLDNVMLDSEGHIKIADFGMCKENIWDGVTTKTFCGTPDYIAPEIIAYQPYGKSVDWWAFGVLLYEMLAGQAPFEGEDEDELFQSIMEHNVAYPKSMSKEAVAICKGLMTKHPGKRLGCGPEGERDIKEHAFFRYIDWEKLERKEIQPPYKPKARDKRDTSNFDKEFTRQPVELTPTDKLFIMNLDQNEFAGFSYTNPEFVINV

Sequence	% activity (266 human kinases [1])	% activity (266 human kinases [2])	% activity (266 human kinases [3])	% activity (266 human kinases [4])	% activity (266 human kinases [5])	% activity (266 human kinases [6])	% activity (266 human kinases [7])	% activity (266 human kinases [8])	% activity (266 human kinases [9])	% activity (266 human kinases [10])	% activity (266 human kinases [11])	% activity (266 human kinases [12])
YARAAARQARAKALNRQLGVA (mammal) [MMI-0200]	99%	97%	88%	98%	75%	166%	67%	100%	110%	98%	69%	98%
HRRIKAWLKKIKALARQLGVAA (mammal) [MMI-0500]	17%	7%	14%	1%	3%	5%	15%	18%	45%	7%	10%	23%
